Results as given in US20010029022A1.

biological target: cyclin A/CDK2 complex (UniProt P20248); assay: cell-based or functional assay

Substance	activation of cyclinA/CDK2, percent of full length E7 [%]	activation of cyclinA/CDK2, percent of full length E7 (repeat experiment) [%]	activation of cyclinA/CDK2, percent of full length GST-HPV 16 E7 [%]
GST-HPV16-E7(9-98) (from UniProt P03129 9-98)	64		
GST-HPV16-E7(16-98) (from UniProt P03129 16-98)	53		
GST-HPV16-E7(39-98) (from UniProt P03129 39-98)		18	28.6

biological target: CDK2 kinase complex (cyclin not given) (UniProt P24941); assay: cell-based or functional assay

Substance	induced kinase activity, percent of that by full length E7 [%]	relative kinase activity compared to full length E7 [%]	CDK2 activation, percent of that of full length E7 (one experiment) [%]	CDK2 activation, percent of that of full length E7 (repeat experiment) [%]	relative kinase activity compared to activity in the presence of full length E7 [%]	% Control Activation of CDK2 [%]	% Control Activation of CDK2, Exp. 1 [%]	% Control Activation of CDK2, Exp. 2 [%]
GST-16E7 (16-38) (from UniProt P08515 1-218; P03129 16-38)	53							
GST-16E7(1-15) (from UniProt P03129 1-15)		15						
GST-16E7(1-27) (from UniProt P03129 1-27)			28.6	52				
GST-16E7(1-38) (from UniProt P03129 1-38)					72			
GST-16E7(1-48) (from UniProt P03129 1-48)					73.2			
GST-16E7(1-69) (from UniProt P03129 1-69)					82.5			
GST-16E7(1-87) (from UniProt P03129 1-87)					76.7			
GST-E7 (20-48) (from UniProt P03129 20-48)	33							
GST-HPV16 E7 ?9-13 (from UniProt P03129 1-8; P03129 14-98)						90		
GST-HPV16 E7 ?9-13, ?A34-37 (from UniProt P03129 1-8; P03129 14-33; P03129 38-98)						72		
GST-HPV16 E7 ?12; ?24, 26 (from UniProt P03129 1-98)							85.2	93.5
GST-HPV16 E7 ?12; ?24, 26; ?31, 32 (from UniProt P03129 1-98)								83.1
GST-HPV16 E7 ?13-15 (from UniProt P03129 1-12; P03129 16-98)						76		
GST-HPV16 E7 ?22-26 (from UniProt P03129 1-21; P03129 27-98)						85		
GST-HPV16 E7 ?22-26, ?31-37 (from UniProt P03129 1-21; P03129 27-30; P03129 38-98)						72		
GST-HPV16 E7 ?24, 26; ?31, 32 (from UniProt P03129 1-98)							88.2	95.6
GST-HPV16 E7 ?24, 26; ?31, 32; ?91 (from UniProt P03129 1-98)								70.6
GST-HPV16 E7 ?24, 26; ?91 (from UniProt P03129 1-98)							69.4	86.4
GST-HPV16 E7 ?31-37 (from UniProt P03129 1-30; P03129 38-98)						80		
GST-HPV16 E7 ?34-37 (from UniProt P03129 1-33; P03129 38-98)						80		
GST-HPV16 E7 C24, E26→S24, D26 (from UniProt P03129 1-98)							86.7	81.3
GST-HPV16 E7 C91→W91 (from UniProt P03129 1-98)							81.7	78.7
GST-HPV16 E7 M12→L12 (from UniProt P03129 1-98)							96.7	
GST-HPV16 E7 S31, S32→G31, G32 (from UniProt P03129 1-98)							77.1	
